Results from patent US20240277803A1, “NME INHIBITORS AND METHODS OF USING NME INHIBITORS” (Minerva Biotechnologies Corporation, priority 2013, published 2024).

Key:
[1] = target: T1, MUC1* extra cellular domain peptide (Homo sapiens, UniProt P15941); assay: gold nanoparticle binding assay, NME7 and MUC1* peptide (FIG. 7); details: protein added free in solution
T1 sequence (P15941 with tags, fused parts or gaps): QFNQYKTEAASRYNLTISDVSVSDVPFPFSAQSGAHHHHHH
Experimental: Gold nanoparticles of a diameter of 30.0 nm were coated with an NTA-SAM surface according to Thompson et al. (ACS Appl. Mater. Interfaces, 2011, 3 (8), pp 2979-2987). The NTA-SAM coated gold nanoparticles were then activated with an equal volume of 180 uM NiSO4, incubated for 10 min at room temperature, washed, and resuspended in a 10 mM phosphate buffer ([…]). The gold nanoparticles were then loaded with PSMGER N-10 peptide ([…] (SEQ ID NO:155)) at 0.5 uM final concentration, and incubated at room temperature for 10 min. Recombinant NME7-AB protein expressed and purified from E. coli was added free in solution at the concentrations indicated. When particle-immobilized proteins bind to each other, or simultaneously bind to two different peptides on two different particles, the particle solution color changes from pink/red to purple/blue. If the protein added free in solution causes particle aggregation, it is strong evidence that the free protein dimerizes the cognate peptide, since binding to a single peptide would not induce two or more particles to be brought into close proximity to each other.
The NME7-AB is added free in solution at the concentrations indicated. Solution color change from pink to purple/blue from particle aggregation indicates binding between the MUC1* peptide on the particles and NME7 free in solution. […] Particle aggregation, indicating NME7 can simultaneously bind to two peptides is observed. […] The T47D breast cancer cell line Lysate, which contains native NME7 turns noticeably purple also.

T47D breast cancer cells = assay: RT-PCR of T47D cells cultured in 2i inhibitors and/or NME7-AB (FIGS. 48, 49); type: cell-based
Experimental: 2i inhibitors, which are small molecule inhibitors of GSK3-beta and MEK of the MAP kinase signaling pathway, have been reported (Silva J et al, 2008) to revert mouse primed stem cells to the naïve state. We wondered whether these inhibitors could also revert human cancer cells to the cancer stem cell state. T47D breast cancer cells were cultured for 10 days in a serum-free minimal base media with the 2i inhibitors added or in the same base media with human recombinant NME7-AB added, or both NME7-AB and 2i. […] The relative potency of inducing the cancer stem cell markers was NME7>NME7+2i>2i (FIG. 48).

A panel of cancer cells = assay: PCR of stem and cancer stem cell markers in cancer cells cultured in NME proteins; type: cell-based; details: cell type not given
Experimental: Another function that NME1 and NME7 have is the ability to transform cancer cells to the more metastatic cancer stem cell state, also called tumor initiating cells. A panel of cancer cells were cultured in a serum-free minimal base media with human NME7-AB or human NME1 dimers (‘NM23’ in figures) as the only growth factor or cytokine. After several days in this media, cells began to float off the surface and continued to grow in solution. The ‘floaters’ were collected and separately analyzed by PCR. Cells in other wells were treated with a rho kinase inhibitor (‘Ri in figures’). Quantitative PCR measurements show an increase of the cancer stem cell markers, some of which used to be thought of as stem cell markers only (Miki J et al 2007, Jeter C R et al 2011, Hong X et al 2012Faber A et al 2013, Mukherjee D et al 2013, Herreros-Villanueva M et al, 2013, Sefah K et al, 2013; Su H-T et al 2013). […] We observed a more modest, but trending, increase in markers of cancer stem cells and metastasis even in cells that were MUC1-negative (FIG. 47). We therefore conclude that NME7 likely is able to enter these cells by a route other than MUC1* wherein it can still act as a transcription factor and affect the expression levels of these genes. […] However, many cancers mutate NME1 so that it resists the formation of the self-replication limiting hexamer. Unlike NME1, NME7 is always active.
Standard methods were used to perform RT-PCR. The primers used are listed below: RNA was isolated using the Trizol® Reagent (Invitrogen) and cDNA was reverse transcribed with Random Hexamers (Invitrogren) using Super Script II (Invitrogen) and subsequently assayed for the genes FOXA2, XIST, KLF2, KLF4, NANOG and OCT4, using Applied Biosystems gene expression assays (OCT4 P/N Hs00999634_gH, Nanog P/N Hs02387400_g1, KLF2 P/N Hs00360439_g1, KLF4 P/N Hs00358836_m1, FOXa2 P/N Hs00232764_m1, OTX2 P/N Hs00222238_m1, LHX2 P/N Hs00180351_m1, XIST P/N Hs01079824 ml and GAPDH P/N 4310884E), on an Applied Biosystems 7500 real-time instrument. Each sample was run in triplicate. Gene expression was normalized to GAPDH. Data are expressed as a fold change relative to control.

B1: NME7-AB: recombinant human NME7 of NDPK A and B domains without the DM10 leader sequence, ~33 kDa (SEQ ID NO:39) (protein, listed as Homo sapiens)
chain: MEKTLALIKPDAISKAGEIIEIINKAGFTITKLKMMMLSRKEALDFHVDHQSRPFFNELIQFITTGPIIAMEILRDDAICEWKRLLGPANSGVARTDASESIRALFGTDGIRNAAHGPDSFASAAREMELFFPSSGGCGPANTAKFTNCTCCIVKPHAVSEGLLGKILMAIRDAGFEISAMQMFNMDRVNVEEFYEVYKGVVTEYHDMVTEMYSGPCVAMEIQQNNATKTFREFCGPADPEIARHLRPGTLRAIFGKTKIQNAVHCTDLPEDGLLEVQYFFKILDN
modifications: Human NME7-AB
With B1 the “binding to MUC1* peptide on nanoparticles (color change pink to purple/blue)” value [1] was “turned purple almost immediately”, the “binding to MUC1* peptide on nanoparticles (color change pink to purple/blue)” value ([1]; listed as NME7) was “has two binding sites for the MUC1* peptide” and the “expression of CDH1, CXCR4, OCT4, SOX2 and NANOG” value (T47D breast cancer cells; T47D cultured for 10 days in serum-free minimal base media, FIG. 48) was “greatly up-regulated”. For the same molecule, the “expression of BRD4, JMJD6, MBD3 and CHD4” value (T47D breast cancer cells; T47D, FIG. 49) was “similarly down-regulated”, the “up-regulation of KLF4” value (A panel of cancer cells) was 4 X and the “up-regulation of MUC1” value (A panel of cancer cells) was 10 X. The “up-regulation of NANOG” value (A panel of cancer cells) was about 10 X, the “up-regulation of OCT4” value (A panel of cancer cells) was about 50 X and the “up-regulation of SOX2” value (A panel of cancer cells) was over 150 X. The “up-regulation of cancer stem cell marker CXCR4” value (A panel of cancer cells) was about 200 X and the “up-regulation of cancer stem cell marker E-cadherin (CDH1)” value (A panel of cancer cells) was “up-regulates”.
